Source: patent US20220119521A1 (Pfizer, published 2022)

T1: chimeric cynomolgus/human MAdCAM (cynomolgus; human, UniProt Q13477 226-382, limits assumed)
T1 sequence: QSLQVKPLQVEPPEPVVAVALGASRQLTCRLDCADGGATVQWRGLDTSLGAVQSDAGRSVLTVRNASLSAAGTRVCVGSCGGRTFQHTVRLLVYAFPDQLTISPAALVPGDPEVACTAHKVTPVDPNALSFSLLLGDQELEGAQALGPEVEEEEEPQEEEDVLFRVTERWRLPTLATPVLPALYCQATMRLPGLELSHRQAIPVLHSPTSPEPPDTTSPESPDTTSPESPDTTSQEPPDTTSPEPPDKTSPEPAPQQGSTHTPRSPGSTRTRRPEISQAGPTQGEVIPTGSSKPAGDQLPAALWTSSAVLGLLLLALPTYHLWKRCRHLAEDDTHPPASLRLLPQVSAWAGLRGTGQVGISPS


What was measured:
[1] = molecular target: MAdCAM-IgG1 Fc fusion protein (human); assay: cell-based or functional assay
[2] = molecular target: T1, chimeric cynomolgus/human MAdCAM; assay: cell-based or functional assay

Mean IC50, α4β7+ JY cell adhesion to coated MAdCAM IgG1 Fc fusion [1] [µg/mL]	Functional IC50 (µg/mL), cynomolgus/human MAdCAM-CHO/JY adhesion assay [2] [µg/mL]	Binder
0.025	0.62	anti-MAdCAM monoclonal antibody 7.20.5 (antibody, human IgG2, kappa, V domains shown) VH: QVQLQESGPGLVKPSETLSLTCTVSGSSISSYHWNWIRQPAGKGLEWIGRIYTSGSTNYNPSLKSRVTMSLDTSKNQFSLKLSSVTAADTAVYYCAREGVRYYYASGSYYYGLDVWGQGTTVTVSS VL: not shown
–	0.53	anti-MAdCAM monoclonal antibody 6.14.2 (antibody, human IgG4, kappa, V domains shown) VH: EVQLLESGGGLVQPGGSLRLSCAASGLTFNNSAMTWVRQAPGKGLEWVSTTSGSGGTTYYADSVKGRFTISRDSPKNTLYLQMNSLRAEDTAVYYCAARGYSYGTTPYEYWGQGTLVTVSS VL: DIQMTQSPSSLSASVGDRVTITCRASRSISSYLNWYQQKPGKAPKVLIFFVSSLQSGVPSRFSGSGSGTDFTLTISSLQPEDFATYYCQQNYIPPITFGQGTRLEIRR
0.03	–	anti-MAdCAM monoclonal antibody 1.7.2 (antibody, human IgG2, kappa, V domains shown) VH: EVQLVESGGGLVKPGGSLRLSCVASGFTFTNAWMIWVRQAPGKGLEWVGRIKRKTDGGTTDYAAPVKGRFTISRDDSKNTLYLQMNSLKTEDTAVYYCTTGGVAEDYWGQGTLVTVSS VL: not shown
0.027	–	anti-MAdCAM monoclonal antibody 1.8.2 (antibody, human IgG2, kappa, V domains shown) VH: EVQLVESGGGLVKPGGSLRLSCVVSGFTFTNAWMIWVRQAPGKGLEWVGRIKRKTDGGTTDYAAPVKGRFTISRDDSKNTLYLQMNSLKTEDTAVYYCTTGGVAEDYWGQGTLVTVSS VL: not shown
–	0.47	anti-MAdCAM monoclonal antibody 6.34.2 (antibody, human IgG4, kappa, V domains shown) VH: QVQLVESGGGVVQPGRSLRLSCAASGFTFSSYGMHWVRQAPGKGLEWVAVISNDGNNKYYADSVKGRFTISRDNSKNTLYLQMNSLSAEDTAVYYCARDSTAITYYYYGMDVWGQGTTVTVSS VL: DIQMTQSPSSLSASVGDRVTITCRASQNISSYLNWFQQKPGKAPKLLIYAASGLKRGVPSRFSGSGSGTDFTLTIRTLQPDDFATYSCHQSYSLPFTFGPGTKVDIKR
0.021	0.96	anti-MAdCAM monoclonal antibody 7.26.4 (antibody, human IgG2, kappa, V domains shown) VH: QVQLVQSGAEVKKPGASVKVSCEASGYTFTSYGIDWVRQAPGQGLEWMGWISVYSGNTNYAQKLQGRVTMSTDTSTSTAYMELRSLRSDDTAVYYCAREGSSSSGDYYYGMDVWGQGTTVTVSS VL: DIVMTQTPLSLSVTPGQPASISCKSNQSLLYSDGKTYLFWYLQKPGQPPQLLIYEVSNRFSGVPDRFSGSGSGTDFTLKISRVEAEDVGVYYCMQSIQLPWTFGQGTKVEIKR
–	0.64	anti-MAdCAM monoclonal antibody 6.77.1 (antibody, human IgG4, kappa, V domains shown) VH: EVQLVESGGGLVKPGGSLRLSCAASGFTFSSYSMNWVRQAPGKGLEWVSSISSSSSYIYYADSVKGRFTISRDNAKNSLYLQMNSLRAEDTAVYYCARDGYSSGWSYYYYYGMDVWGQGTTVTVSS VL: DIVMTQTPLSLSVTPGQPASISCNSSQSLLLSDGKTYLNWYLQKPGQPPQLLIYEVSNRFSGVPDRFSGSGSGTDFTLKISRVEAEDVGVYSCMQSIQLMCSFGQGTKLEIKR
–	0.83	anti-MAdCAM monoclonal antibody 6.22.2 (antibody, human IgG4, kappa, V domains shown) VH: QVQLVESGGGVVQPGRSLRLSCAASGHTFSSDGMHWVRQAPGKGLEWVAIIWYDGSNKYYADSVKGRFTISRDNSKNTLYLQMNSLRAEDTAVYYCARDPGYYYGMDVWGQGTTVTVSS VL: EIVLTQSPDFQSVTPKEKVTITCRASQRIGSSLHWYQQKPDQSPKLLIKYASQSFSGVPSRFSGSGSGTNFTLTINGLEAEDAATYYCHQSGRLPLTFGGGTKVEIKR
–	0.83	anti-MAdCAM monoclonal antibody 9.8.2 (antibody, human IgG4, kappa, V domains shown) VH: QVQLVESGGGVVQPGRSLRLSCAASGFTFSSYGMHWVRQAPGKGLEWVAVIWYDGSNEYYADSVKGRFTISRDNSKNTLYLQMNSLRAEDTAVYYCARGAYHFAYWGQGTLVTVSS VL: DIQMTQSPSSLSASVGDRVTITCQASQDISNYLNWYQQKPGKAPKLLIYDASNLETGVPSRFSGSGSGTDFTFTISSLQPEDIATYSCQHSDNLSITFGQGTRLEIKR
–	0.75	anti-MAdCAM monoclonal antibody 6.67.1 (antibody, human IgG4, kappa, V domains shown) VH: QVQLQESGPGLVKPSETLSLTCTVSGDSISSNYWSWIRQPAGKGLEWIGRIYTSGGTNSNPSLRGRVTILADTSKNQFSLKLSSVTAADTAVYYCARDRITIIRGLIPSFFDYWGQGTLVTVSS VL: not shown
